Experiment [1] concerns the target Eastern equine encephalitis virus (EEEV) strain FL93-939 (Eastern equine encephalitis virus, strain FL93-939).
Experiment [2] shares this target. The source holds these as a separate data set.
For experiment [3], the target named is Recombinant EEEV E2 glycoprotein (E3E2) (strain V105; IBT Bioservices) (Eastern equine encephalitis virus, strain V105). Description: ELISA, mAb on coated recombinant E2. Background: ELISA stands for enzyme-linked immunosorbent assay.
In experiment [4] the target is Eastern equine encephalitis virus (EEEV) strain FL93-939 (Eastern equine encephalitis virus, strain FL93-939). The source holds these as a separate data set.

Values joined by “and” are separate entries in the source; they are usually repeats but may differ in a detail not shown here. Identical values can stand only once. Like-named read-outs stand apart in the source and are kept apart here.

B1: EEEV-143 (antibody, V domains shown)
VH: QVQLVESGGGVVQPGRSLRLSCAASGFTFSNYGIHWVRQAPGKGLEWVAVISYDGRHKYIADPVKGRFTISRDNSKNMLYLQMNSLRTEDTAVYYCAKDTSGWYEFFDSWGQGIPVTVSS
VL: EIVMTQSPATLSVSPGERATLSCRASQSVATNVAWYQQKPGQAPRLLIYGASTRATGIPARFSGSGSGTEFTLTISSLQSEDFAVYYCQQCNDWLTFGQGTKVEIK
In turn, B1 yielded an IC50, neutralization, PRNT in experiment [1] of 0.315 nM.

B2: EEEV-147 (antibody, V domains shown)
VH: QVQLVQSGAEVKKPGASVKVSCKASGYTFTNYGITWVRQAPGQGLEWMGWISAYNGNTDYAQKLQGRVTMTTDTSTSTAYMELGSLRSDDTAVYYCARELWFGDLGYWGQGTLVTVSS
VL: EIVLTQSPGTLSLSPGERATLSCRASQSVSRSSSSYLAWYQQKPGQAPRLLIYGASSRATGIPDRFSGSGSGTDFTLTISRLEPEDVAVYYCQQYGSSPQTFGQGTKLEIK
In experiment [2], B2 showed an IC50, neutralization, CPE assay of less than 1 µg/mL.

B3: EEEV-33 (antibody, V domains shown)
VH: QVTLKESGPALVKPTQTLTLTCTFSGFSLSTSGMRVSWIRQPPGKALEWLARIDWDDDKFYSTSLKTRLTISKDTSKNQVVLRMTNMDPVDTATYYCARILPGYCSGGSCYYNYHFDYWGQGTLVTVSS
VL: SYVLTQPPSVSVAPGQTARITCGGNNIGSKSVHWYQQKPGQAPVLVVYHDSDRPSGIPERFSGSNSGNTATLTISRVEAGDEADYYCQVWDSSSDPYVFGTGTKVTVL
In general, EC50 refers to the concentration needed to bring the measured effect to its halfway point. For the molecule B3, the half-maximal effective concentration (EC50) in experiment [3] is < 4 nM and < 1.2 µg/mL. The IC50, neutralization, PRNT in experiment [4] is less than 0.037 nM. The IC50, neutralization, CPE assay in experiment [2] was less than 0.01 µg/mL.

These data come from US20230065377A1.
